Reference: patent publication US20150140014A1

Assays:
[1] = target: human c-Met protein (human) (UniProt P08581); experiment: SPR (Biacore), antibody immobilized on CM5 chip, human c-Met protein 0.39-100 nM injected
[2] = target: c-Met on human cancer cells (MKN45 gastric cancer cells; NCI-H441 lung cancer cells) (human) (UniProt P08581); experiment: cell-based or functional assay
Chain of c-Met on human cancer cells (MKN45 gastric cancer cells; NCI-H441 lung cancer cells) (human) (P08581 25-1390): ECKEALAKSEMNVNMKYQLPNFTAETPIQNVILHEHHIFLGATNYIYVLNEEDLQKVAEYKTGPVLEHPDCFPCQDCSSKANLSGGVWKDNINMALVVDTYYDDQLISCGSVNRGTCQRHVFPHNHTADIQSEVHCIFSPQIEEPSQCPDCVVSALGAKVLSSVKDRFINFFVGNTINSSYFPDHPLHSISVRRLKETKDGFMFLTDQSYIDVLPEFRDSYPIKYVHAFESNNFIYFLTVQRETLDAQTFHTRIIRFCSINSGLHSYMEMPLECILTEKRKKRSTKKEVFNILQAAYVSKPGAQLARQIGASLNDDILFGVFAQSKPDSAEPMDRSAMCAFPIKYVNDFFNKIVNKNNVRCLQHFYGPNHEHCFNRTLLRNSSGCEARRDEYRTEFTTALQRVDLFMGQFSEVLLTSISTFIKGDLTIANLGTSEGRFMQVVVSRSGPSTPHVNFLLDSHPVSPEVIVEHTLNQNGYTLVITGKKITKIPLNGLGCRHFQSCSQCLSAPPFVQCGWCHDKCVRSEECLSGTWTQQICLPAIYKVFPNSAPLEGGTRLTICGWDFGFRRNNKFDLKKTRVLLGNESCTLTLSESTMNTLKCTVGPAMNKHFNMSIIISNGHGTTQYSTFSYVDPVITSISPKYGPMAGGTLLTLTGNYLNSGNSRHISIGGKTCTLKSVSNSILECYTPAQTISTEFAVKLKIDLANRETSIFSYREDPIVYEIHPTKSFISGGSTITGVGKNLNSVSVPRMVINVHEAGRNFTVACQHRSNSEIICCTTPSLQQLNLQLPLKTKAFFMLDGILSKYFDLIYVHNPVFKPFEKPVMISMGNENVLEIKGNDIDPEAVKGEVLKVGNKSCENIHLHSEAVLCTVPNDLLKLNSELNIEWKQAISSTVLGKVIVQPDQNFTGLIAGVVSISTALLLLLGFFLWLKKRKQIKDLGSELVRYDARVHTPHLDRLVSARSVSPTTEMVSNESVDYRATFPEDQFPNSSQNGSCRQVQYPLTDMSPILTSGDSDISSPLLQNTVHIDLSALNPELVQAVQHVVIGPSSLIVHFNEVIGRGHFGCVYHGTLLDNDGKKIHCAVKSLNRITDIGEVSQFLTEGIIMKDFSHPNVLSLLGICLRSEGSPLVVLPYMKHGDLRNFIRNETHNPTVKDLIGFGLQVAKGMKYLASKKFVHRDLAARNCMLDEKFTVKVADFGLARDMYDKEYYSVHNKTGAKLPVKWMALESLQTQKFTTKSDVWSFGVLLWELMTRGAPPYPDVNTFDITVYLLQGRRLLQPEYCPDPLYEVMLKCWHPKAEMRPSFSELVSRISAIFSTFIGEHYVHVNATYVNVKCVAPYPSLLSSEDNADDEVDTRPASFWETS

Chain of human c-Met protein (human) (P08581 25-932 limits assumed): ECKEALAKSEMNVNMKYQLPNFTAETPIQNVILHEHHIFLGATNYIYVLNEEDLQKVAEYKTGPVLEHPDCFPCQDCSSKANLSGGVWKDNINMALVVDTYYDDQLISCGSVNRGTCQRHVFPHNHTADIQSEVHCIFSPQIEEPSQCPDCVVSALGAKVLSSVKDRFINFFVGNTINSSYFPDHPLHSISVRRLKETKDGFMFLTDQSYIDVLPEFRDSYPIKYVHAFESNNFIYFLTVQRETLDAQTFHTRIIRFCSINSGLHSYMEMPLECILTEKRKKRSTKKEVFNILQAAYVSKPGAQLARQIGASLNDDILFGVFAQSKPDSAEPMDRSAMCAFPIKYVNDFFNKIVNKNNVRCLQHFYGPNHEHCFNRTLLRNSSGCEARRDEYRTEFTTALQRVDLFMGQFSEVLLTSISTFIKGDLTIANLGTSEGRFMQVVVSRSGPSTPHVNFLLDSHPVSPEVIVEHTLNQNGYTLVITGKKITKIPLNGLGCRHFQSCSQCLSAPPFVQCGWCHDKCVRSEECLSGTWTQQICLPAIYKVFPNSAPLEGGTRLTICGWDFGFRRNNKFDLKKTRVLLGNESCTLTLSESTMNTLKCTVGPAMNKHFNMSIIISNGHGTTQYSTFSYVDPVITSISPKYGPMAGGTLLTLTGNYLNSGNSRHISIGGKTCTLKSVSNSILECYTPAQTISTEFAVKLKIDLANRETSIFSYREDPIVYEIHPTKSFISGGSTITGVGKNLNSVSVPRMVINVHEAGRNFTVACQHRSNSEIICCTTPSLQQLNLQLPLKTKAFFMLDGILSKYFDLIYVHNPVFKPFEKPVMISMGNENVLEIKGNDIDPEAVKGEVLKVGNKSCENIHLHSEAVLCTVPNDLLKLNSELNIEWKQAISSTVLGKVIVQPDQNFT

B1: huAbF46-H4-A1 (antibody, from a related filing, V domains shown)
VH: EVQLVESGGGLVQPGGSLRLSCAASGFTFTDYYMSWVRQAPGKGLEWLGFIRNKANGYTTEYSASVKGRFTISRDNSKNTLYLQMNSLRAEDTAVYYCARDNWFAYWGQGTLVTVSS
VL: DIQMTQSPSSLSASVGDRVTITCKSSQSLLASGNQNNYLAWHQQKPGKAPKMLIIWASTRVSGVPSRFSGSGSGTDFTLTISSLQPEDFATYYCQQSYSRPYTFGQGTKVEIKR
**Q.** What does the source list for B1?
**A.** Kd [1]: 0.06 nM; koff [1]: 4.53e-05 s⁻¹; kon [1]: 739000 M⁻¹ s⁻¹; BrdU assay on NCI-H441 cells (agonism), 10 ug/ml [2]: 25%; degree of degradation of c-Met (total c-Met ELISA, MKN45 cells, 5 ug/ml, 24 hours) [2]: 37%
